In publication PMC3617137 (2013):

Molecular target: T1, microtubules (alpha/beta-tubulin) (Sus scrofa, UniProt P02550)
T1 chain 1: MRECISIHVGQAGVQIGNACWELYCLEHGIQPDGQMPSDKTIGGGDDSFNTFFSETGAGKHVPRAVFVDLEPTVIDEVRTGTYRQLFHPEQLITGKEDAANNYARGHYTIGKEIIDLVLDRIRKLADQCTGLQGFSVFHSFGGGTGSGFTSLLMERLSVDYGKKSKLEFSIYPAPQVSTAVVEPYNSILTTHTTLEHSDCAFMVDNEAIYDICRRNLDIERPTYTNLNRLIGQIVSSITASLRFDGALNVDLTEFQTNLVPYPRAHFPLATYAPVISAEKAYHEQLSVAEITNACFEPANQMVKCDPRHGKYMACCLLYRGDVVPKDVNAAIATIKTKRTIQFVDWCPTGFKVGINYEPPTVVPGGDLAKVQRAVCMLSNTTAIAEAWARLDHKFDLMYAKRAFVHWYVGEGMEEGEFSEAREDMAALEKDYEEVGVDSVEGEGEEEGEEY
T1 chain 2: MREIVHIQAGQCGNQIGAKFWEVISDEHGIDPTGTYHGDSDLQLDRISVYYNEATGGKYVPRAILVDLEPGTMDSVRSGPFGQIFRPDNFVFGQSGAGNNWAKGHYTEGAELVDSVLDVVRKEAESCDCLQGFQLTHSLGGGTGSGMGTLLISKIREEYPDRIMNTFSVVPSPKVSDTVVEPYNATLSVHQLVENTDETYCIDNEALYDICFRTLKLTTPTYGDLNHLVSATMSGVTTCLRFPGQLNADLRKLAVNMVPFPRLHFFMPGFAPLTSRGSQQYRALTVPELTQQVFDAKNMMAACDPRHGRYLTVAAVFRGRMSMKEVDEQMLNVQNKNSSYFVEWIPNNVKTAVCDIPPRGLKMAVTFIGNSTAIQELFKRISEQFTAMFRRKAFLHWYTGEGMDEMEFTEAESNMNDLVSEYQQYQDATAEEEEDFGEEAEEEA
Assay: microtubule co-sedimentation

B1: Mars (MBP-N-Mars) 1-430 (protein)
chain: MQRHKELYKEQSLVLSPRNHCQENRDRLQAARAKKREDCFYQNRIISVSPTPVKIKQLAAAQAALTQENVAPKLESPERLDTKPAELLKESNPKVSRQKLYLQRYMEWKIAKTKEHKQQDQKRRGAAINVPTVKQSKALPKSQTFRVPDNLASAKQKEAAPMFQPPKRCSLYMIANPTGKGKAAEPIKPSIPKPTSAAAPPSSNTVAASSALARHKSAASATKIVPAIRQNNNPVALARQKAAARPIPNTTKQTTSVRQPGIEAKKITTTIPRPTPATVTKAKTPGIRQQPPVVSTKPRLPEPPAPRTARLPNVLSKPFEKPLGNKAPVTRRANVVKPQPIRGGGGAAAKFKDTAGATSKAASHSIRMKATKIKSQYTRLQDNVRKLPQLKAELLHAATLDIPPLTPLDDIHNPFIDQATSTQCKSNNSS
modifications: MBP fusion, taxol-stabilized GMPPNP/GDP-NP microtubules
B1 was tested, and the Kd was 250 nM.
